Data from the RNAGym collection of RNA variant scans (doi:10.1093/molbev/msab373).

B1: Azoarcus group I ribozyme (parent)
chain: GUGCCUUGCGCCGGGAAACCACGCAAGGGAUGGUGUCAAAUUCGGCGAAACCUAAGCGCCCGCCCGGGCGUAUGGCAACGCCGAGCCAAGCUUCGGCGCCUGCGCCGAUGAAGGUGUAGAGACUAGACGGCACCCACCUAAGGCAAACGCUAUGGUGAAGGCAUAGUCCAGGGAGUGGCGAAAGUCACACAAACCGG

Variants of: B1
Experiment: reverse-splicing fitness (ratio to wild type); higher = more active; in vitro selection; Mg2+ level not given
Procedure, shortened: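 An in vitro group I ribozyme library with randomized positions was T7-transcribed and gel-purified. In triplicate, 10 pmol RNA in EPPS pH 7.5 was reacted with 50 pmoles of a 30-nt RNA substrate for 1 h at 37 °C across several added MgCl2 levels (1–48 mM), then stopped with EDTA. Products were reverse transcribed from a substrate-complementary primer, PCR-amplified and sequenced (HiSeq 4000). Fitness is a variant's read proportion after selection over that before, normalised to wild type.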

In order of rising reverse-splicing fitness:
1. C82G A120U C169A U176G  0.000985
2. C82G A120U A145U C169G U176G  0.00119
3. C82G A120U A145U C150A C169G U176G  0.00134
4. C82G A120U A145C C169U U176G  0.00148
5. C82G A120U A145G C169U U176G  0.00154
6. C82G A120U C169U U176G  0.00154
7. C82G A120U A145U C150A C169A U176G  0.00156
8. C82G A120U A145C C169A U176G  0.00157
9. C82G A120U A145U C150U C169A U176G  0.00157
10. C82G A120U A145G C169A U176G  0.00159
11. C82G A120U A145C C150G C169A U176G  0.00165
12. C82G A120U A145U C150U C169G U176G  0.00167
13. C82G A120U A145C C169A U176C  0.00168
14. C82G A120U A145C C150U C169A U176G  0.00172
15. C82G A120U A145C C150G C169A U176C  0.00176
16. C82G A120U A145U C150G C169G U176G  0.00182
17. C82G A120U A145U C150U C169A U176A  0.00183
18. C82G A120U A145C C169A U176A  0.00185
19. C82G A120U C150A C169U U176G  0.00185
20. C82G A120U A145G C150U C169G U176G  0.00186
21. C82G A120U A145U C150A C169G U176C  0.00192
22. C82G A120U A145C C150U C169A U176C  0.00192
23. C82G A120U C150U C169U U176G  0.00193
24. C82G A120U A145U C150U C169A U176C  0.00197
25. C82G A120U A145U C150A C169A U176C  0.00199
26. C82G A120U C150A C169G U176G  0.00199
27. C82G A120U A145G C150A C169U U176G  0.00206
28. C82G A120U C150G C169G U176G  0.00218
29. C82G A120U A145U C150A C169A U176A  0.00218
30. C82G A120U A145C C150G C169A U176A  0.00219
31. C82G A120U C150G C169U U176G  0.0022
32. C82G A120U A145U C150G C169G U176C  0.0022
33. C82G A120U A145U C150A C169G U176A  0.00221
34. C82G A120U A145C C150U C169A U176A  0.00222
35. C82G A120U A145C C169U U176C  0.00223
36. C82G A120U A145G C150U C169A U176G  0.00223
37. C82G A120U A145U C169G U176A  0.00234
38. C82G A120U A145U C150G C169G U176A  0.00237
39. C82G A120U C169A U176A  0.00247
40. C82G A120U A145U C150U C169G U176A  0.00248
41. C82G A120U A145G C150A C169A U176G  0.00256
42. C82G A120U C169A  0.00257
43. C82G A120U C169A U176C  0.00259
44. C82G A120U A145C C169U U176A  0.00266
45. C82G A120U A145G C150U C169A U176C  0.0027
46. C82G A120U C150G C169G U176C  0.00277
47. C82G A120U A145G C150A C169A U176C  0.00287
48. C82G A120U A145C C150G U176G  0.00292
49. C82G A120U A145U C169G U176C  0.00292
50. C82G A120U C150A C169G  0.00295
51. C82G A120U C150A C169U U176C  0.00296
52. C82G A120U A145C C150A U176G  0.00299
53. C82G A120U A145G C169A U176C  0.00321
54. C82G A120U A145G C169A  0.00321
55. C82G A120U A145U C150U C169G U176C  0.00331
56. C82G A120U C150U C169U U176C  0.00336
57. C82G A120U C150G C169U U176C  0.00347
58. C82G A120U A145G C169A U176A  0.00356
59. C82G A120U C150A C169G U176C  0.00368
60. C82G A120U C150G C169U U176A  0.00369
61. C82G A120U A145G C150A C169U U176C  0.00375
62. C82G A120U C150A C169U U176A  0.00396
63. C82G A120U C150A C169A  0.00401
64. C82G A120U C169U U176A  0.00406
65. C82G A120U A145G C150G U176G  0.0041
66. C82G A120U A145G C150G C169G U176G  0.00411
67. C82G A120U A145G C169U U176A  0.00419
68. C82G A120U A145G C150U C169G U176C  0.00419
69. C82G A120U A145U C150A U176G  0.00423
70. C82G A120U C150A C169U  0.00426
71. C82G A120U A145G C150G C169U U176G  0.00451
72. C82G A120U A145G C169U U176C  0.00453
73. C82G A120U C150G C169G U176A  0.00454
74. C82G A120U C150U C169A  0.00461
75. C82G A120U A145G C150A C169U U176A  0.00465
76. C82G A120U A145C C150A U176A  0.00467
77. C82G A145C C150U C169A U176G  0.00476
78. C82G A145C C169A U176G  0.00481
79. C82G A145C C150G C169U U176G  0.00486
80. C82G A145C C150A C169U U176G  0.00493
81. C82G A120U C150U C169U U176A  0.00509
82. C82G A145G C150A C169G U176G  0.00515
83. C82G A120U C169U U176C  0.00518
84. C82G A120U C150U C169G  0.00527
85. C82G A120U A145C C150A U176C  0.00532
86. C82G A145C C150U C169G U176G  0.00533
87. C82G A145C C150G C169G U176G  0.0054
88. C82G A145C C169A U176C  0.00541
89. C82G A120U A145G C150U C169G U176A  0.00552
90. C82G A120U C150A U176G  0.00569
91. C82G A120U C150U C169U  0.00575
92. C82G A120U A145G C150U C169A U176A  0.00578
93. C82G A145C C150U C169A U176C  0.00579
94. C82G A120U A145G C150U C169A  0.00606
95. C82G A120U C150A C169G U176A  0.00631
96. C82G A120U A145G C150G C169G U176C  0.00637
97. C82G A120U A145G C150A C169A U176A  0.00645
98. C82G A145C C150G C169G U176C  0.00656
99. C82G A120U C169G  0.00666
100. C82G A120U A145G C169G  0.00688
101. C82G A120U A145G C150G C169U U176C  0.00701
102. C82G A120U A145G C169U  0.00713
103. C82G A120U C169U  0.00719
104. C82G A145C C150U C169G  0.00731
105. C82G A120U A145C C150G U176A  0.00741
106. C82G A145C C150A C169U U176C  0.00742
107. C82G A120U A145G C150U C169G  0.00765
108. C82G A145C C150U C169A  0.00797
109. C82G A120U A145G C150U C169U  0.00803
110. C82G A120U A145G C150G C169U U176A  0.00829
111. C82G A120U A145U C150A U176A  0.0083
112. C82G A145C C150G C169U U176C  0.00852
113. C82G A145G C150G C169A U176G  0.00858
114. C82G A145C C169A  0.00859
115. C82G A120U A145G C150G U176A  0.00899
116. C82G A120U A145G C150G C169G U176A  0.00901
117. C82G A120U A145C C150G U176C  0.00907
118. C82G A145C C150U C169G U176C  0.00942
119. C82G A145C C150G C169G U176A  0.00973
120. C82G A145C C150U C169U  0.00975
121. C82G A145C C150G C169U U176A  0.0101
122. C82G A120U C150A U176A  0.0102
123. C82G A120U A145G C150U U176G  0.0104
124. C82G A120U A145U C150A U176C  0.0105
125. C82G A145C C150U C169A U176A  0.0111
126. C82G A145C C169G  0.0115
127. C82G A145C C150A U176G  0.0117
128. C82G A120U C150U U176G  0.0119
129. C82G A145C C169A U176A  0.0121
130. C82G A145C C150A C169U U176A  0.0123
131. C82G A120U C150A U176C  0.0129
132. C82G A145G C150G C169A U176C  0.0144
133. C82G A120U C150G  0.0146
134. C82G A145G C150G C169A U176A  0.0146
135. C82G A120U A145U C150A  0.0151
136. C82G A120U A145G C150G U176C  0.0152
137. C82G A120U C150A  0.0159
138. C82G A145C C169U  0.016
139. C82G A145G C150A C169G U176A  0.017
140. C82G A120U A145U C150G  0.0173
141. C82G A145C C150U C169G U176A  0.019
142. C82G A120U U176G  0.0201
143. C82G A120U A145C U176G  0.0211
144. C82G A145C C150A U176C  0.0216
145. C82G A120U A145G C150G  0.022
146. C82G A145C C150A  0.0227
147. C82G A145C C150A U176A  0.0237
148. C82G A120U A145G C150A  0.0245
149. C82G A145G C150A C169G U176C  0.0286
150. C82G A120U C150U U176A  0.0366
151. C82G A145C C150U U176G  0.0373
152. C82G A145C C150G  0.0512
153. C82G A120U A145G C150U U176A  0.0528
154. C82G A120U C150U U176C  0.058
155. C82G A120U A145C U176A  0.0712
156. C82G A120U U176A  0.0729
157. C82G A120U A145G C150U U176C  0.0776
158. C82G A120U A145C U176C  0.0798
159. C82G A145C C150U U176C  0.0809
160. C82G A145C C150U U176A  0.0881
161. C82G A145C C150U  0.0965
162. C82G A120U C150U  0.1
163. C82G A120U U176C  0.113
164. C82G A120U A145U C150U  0.131
165. C82G A120U A145G C150U  0.168
166. C82G A120U A145G  0.229
167. C82G A120U A145U  0.23
